Values joined by “and” are separate entries in the source; they are usually repeats but may differ in a detail not shown here. Equal entries are not always repeated.

The subject of one assay is MES-SA. The assay can be described thus: MTT cytotoxicity test, MES-SA (human uterine sarcoma). Type of assay: cell-based. The source says: (§1) MTT assay is a colorimetric assay used to measure proliferation, viability and cytotoxicity of cells. It consists in decomposition of a yellow tetrazolium salt MTT (4,5-dimethyl-2-thiazolyl)-2,5-diphenyltetrazolium bromide) to the water-insoluble purple dye formazan by mitochondrial enzyme succinate-tetrazolium reductase 1. MTT reduction occurs only in living cells. Data analysis consists in determining IC50 concentration of the protein (in ng/ml), at which the 50% reduction in the number of cells occurs in the population treated compared to control cells. Results were analyzed using GraphPad Prism 5.0 software. The test was performed according to the literature descriptions (Cells, J E, (1998). Cell Biology, a Laboratory Handbook, second edition, Academic Press, San Diego; Yang, Y., Koh, L W, Tsai, J H., (2004); Involvement of viral and chemical factors with oral cancer in Taiwan, Jpn J Clin Oncol, 34 (4), 176-183). Cell culture medium was diluted to a defined density (10^4-10^5 cells per 100 μl). Then 100 μl of appropriately diluted cell suspension was applied to a 96-well plate in triplicates. Thus prepared cells were incubated for 24 h at 37° C. in 5% or 10% CO2, depending on the medium used, and then to the cells (in 100 μl of medium) further 100 μl of the medium containing various concentrations of tested proteins were added. In the case of combination hTRAIL114-281 and p21WAF effector protein, 100 μl of the medium containing mixture of hTRAIL114-281 and p21WAF effector protein in molar ratio 1:1 was added. After incubation of the cells with tested proteins over the period of next 72 hours, which is equivalent to 3-4 times of cell division, the medium with the test protein was added with […] of MTT working solution [5 mg/ml], and incubation was continued for 3 h at 37° C. in 5% CO2. Then the medium with MTT solution was removed, and formazan crystals were dissolved by adding 100 μl of DMSO. After stirring, the absorbance was measured at 570 nm (reference filter 690 nm).
(§2) The results of in vitro cytotoxicity tests are summarized as IC50 values (ng/ml), which corresponds to the protein concentration at which the cytotoxic effect of fusion proteins is observed at the level of 50% with respect to control cells treated only with solvent. Each experiment represents the average value of at least two independent experiments performed in triplicates. As a criterion of lack of activity of protein preparations the IC50 limit of 2000 ng/ml was adopted.

For another assay, the system named is MDA-MB-231. The assay can be described thus: MTT cytotoxicity test, MDA-MB-231 (human breast cancer). Type of assay: cell-based. Conditions: Table 4, mean/SD part. The source says: (§3) MTT assay is a colorimetric assay used to measure proliferation, viability and cytotoxicity of cells. It consists in decomposition of a yellow tetrazolium salt MTT (4,5-dimethyl-2-thiazolyl)-2,5-diphenyltetrazolium bromide) to the water-insoluble purple dye formazan by mitochondrial enzyme succinate-tetrazolium reductase 1. MTT reduction occurs only in living cells. Data analysis consists in determining IC50 concentration of the protein (in ng/ml), at which the 50% reduction in the number of cells occurs in the population treated compared to control cells. Results were analyzed using GraphPad Prism 5.0 software. The test was performed according to the literature descriptions (Cells, J E, (1998). Cell Biology, a Laboratory Handbook, second edition, Academic Press, San Diego; Yang, Y., Koh, L W, Tsai, J H., (2004); Involvement of viral and chemical factors with oral cancer in Taiwan, Jpn J Clin Oncol, 34 (4), 176-183). Cell culture medium was diluted to a defined density (10^4-10^5 cells per 100 μl). Then 100 μl of appropriately diluted cell suspension was applied to a 96-well plate in triplicates. […] After stirring, the absorbance was measured at 570 nm (reference filter 690 nm). […]
On the technique in general: Tetrazolium dyes change colour on reduction, which living cells bring about.

For a further assay, the system named is MES-SA/Dx5. Put plainly: MTT cytotoxicity test, MES-SA/Dx5 (multidrug-resistant human uterine sarcoma). The format is cell-based.
Source text: as §1, §2
Cells selected for this test included tumor cell lines that are naturally resistant to TRAIL protein (the criterion of natural resistance to TRAIL: IC50 for TRAIL protein >2000), as well as tumor cell lines sensitive to TRAIL protein and resistant to doxorubicin line MES-SA/DX5 as a cancer line resistant to conventional anticancer medicaments.

For the next assay, the system named is SK-MES-1. Put plainly: MTT cytotoxicity test, SK-MES-1 (human lung cancer). Type of assay: cell-based.
Source text: as §1, §2

The subject of another assay is NIH: OVCAR-3. Put plainly: MTT cytotoxicity test, NIH: OVCAR-3 (human ovarian cancer). The format is cell-based. Conditions: Table 4, mean/SD part.
Source text: as §3

For another assay, the system named is UM-UC-3. Put plainly: MTT cytotoxicity test, UM-UC-3 (human bladder cancer). Type of assay: cell-based. Conditions: Table 4, mean/SD part.
Source text: as §3

In the next assay the test system is Panc-1. Put plainly: MTT cytotoxicity test, Panc-1 (human pancreatic cancer). The format is cell-based. Conditions: Table 4, mean/SD part.
Source text: as §3

For a further assay, the system named is NCI-H460. Conditions: Table 4, mean/SD part.
Another assay relates to MCF10A. Put plainly: MTT cytotoxicity test, MCF10A (mammary epithelial cells). The format is cell-based.
Source text: as §1, §2

A further assay deals with A549. The assay can be described thus: MTT cytotoxicity test, A549 (human lung cancer). Type of assay: cell-based.
Source text: as §1, §2

The next assay relates to PLC/PRF/5. Put plainly: MTT cytotoxicity test, PLC/PRF/5 (human liver hepatoma). Type of assay: cell-based. The settings on record: Table 4, mean/SD part.
Source text: as §3

The subject of another assay is SW620. Put plainly: MTT cytotoxicity test, SW620 (human colorectal cancer). Type of assay: cell-based. The settings on record: Table 4, mean/SD part.
Source text: as §3

A further assay relates to HepG2. The assay can be described thus: MTT cytotoxicity test, HepG2 (human liver hepatoma). The settings on record: Table 4, mean/SD part. Type of assay: cell-based.
Source text: as §3

[1] abbreviates: continuous incubation over 72 h, test MTT.

Method for NCI-H460: Data analysis consists in determining IC50 concentration of the protein (in ng/ml), at which the 50% reduction in the number of cells occurs in the population treated compared to control cells. Results were analyzed using GraphPad Prism 5.0 software. […] Cell culture medium was diluted to a defined density (10^4-10^5 cells per 100 μl). Then 100 μl of appropriately diluted cell suspension was applied to a 96-well plate in triplicates. Thus prepared cells were incubated for 24 h at 37° C. in 5% or 10% CO2, depending on the medium used, and then to the cells (in 100 μl of medium) further 100 μl of the medium containing various concentrations of tested proteins were added. […] After incubation of the cells with tested proteins over the period of next 72 hours, which is equivalent to 3-4 times of cell division, the medium with the test protein was added with 20 ml of MTT working solution [5 mg/ml], and incubation was continued for 3 h at 37° C. in 5% CO2. Then the medium with MTT solution was removed, and formazan crystals were dissolved by adding 100 μl of DMSO. After stirring, the absorbance was measured at 570 nm (reference filter 690 nm).

B1: Ex. 3: fusion protein: 8-amino acid fragment of human fetoprotein at C-terminus of TRAIL121-281, MMP and uPA cleavage sites (protein)
chain: RVAAHITGTRGRSNTLSSPNSKNEKALGRKINSWESSRSGHSFLSNLHLRNGELVIHEKGFYYIYSQTYFRFQEEIKENTKNDKQMVQYIYKYTSYPDPILLMKSARNSCWSKDAEYGLYSIYQGGIFELKENDRIFVSVTNEHLIDMDHEASFFGAFLVGPLGLAGRVVREMTPVNPG
modifications: synthesized, a fusion protein comprising: a fragment of TRAIL protein, a fragment of human fetoprotein and cleavage sites recognized by uPA and MMP.
notes: fusion protein: 8-amino acid fragment of human fetoprotein at C-terminus of TRAIL121-281, MMP and uPA cleavage sites
As for B1, the “MES-SA mean (IC50)” value with MES-SA (Table 4, mean/SD part) stood at 0.03618 µg/mL. In the assay on MDA-MB-231, the “MDA-MB-231 mean (IC50)” value amounted to 0.02086 µg/mL. Besides, the “MES-SA/Dx5 mean (IC50)” value with MES-SA/Dx5 (Table 4, mean/SD part) came out at 0.03431 µg/mL. Besides, in the assay on SK-MES-1 (Table 4, mean/SD part), the “SK-MES-1 mean (IC50)” value turned out to be 0.007755 µg/mL. In addition, the “HCT116 mean (IC50)” value with HCT-116 (Table 4, mean/SD part) was 0.041 µg/mL. For the same molecule, in the assay on NIH: OVCAR-3, the “OVCAR-3 mean (IC50)” value came to 0.02751 µg/mL. Also, the “UM-UC-3 mean (IC50)” value with UM-UC-3 came to 0.0204 µg/mL.

B2: Ex. 23: fusion protein: 13-amino acid inhibitor of RasGAP-Aurora B interactions with 8 arginine residues at N-terminus of TRAIL121-281, uPA and MMP sites (protein)
chain: KWVVSHARLMYSFRRRRRRRRRVVRPLGLAGCRVAAHITGTRGRSNTLSSPNSKNEKALGRKINSWESSRSGHSFLSNLHLRNGELVIHEKGFYYIYSQTYFRFQEEIKENTKNDKQMVQYIYKYTSYPDPILLMKSARNSCWSKDAEYGLYSIYQGGIFELKENDRIFVSVTNEHLIDMDHEASFFGAFLVG
modifications: synthesized, a fusion protein comprising: a fragment of TRAIL protein, a peptide acting as an inhibitor of interactions RasGAP - Aurora B, cleavage sites recognized by uPA and MMP, an arginine transporting domain and a cysteine stabilizing residue.
In the case of B2, the “MES-SA IC50” value with MES-SA (setting [1]) was determined as 0.00061 µg/mL. Also, the “PANC-1 mean (IC50)” value with Panc-1 turned out to be 0.0229 µg/mL. The “NCI-H460 mean (IC50)” value in the assay with NCI-H460 stood at 0.00711 µg/mL. Also, in the assay with MES-SA/Dx5 (setting [1]), the “MES-SA/Dx5 IC50” value is 0.00013 µg/mL. Also, the “SK-MES-1 IC50” value in the assay on SK-MES-1 (setting [1]) came out at 0.00042 µg/mL. Also, the “MCF10A mean (IC50)” value with MCF10A (Table 4, mean/SD part) worked out at 0.005196 µg/mL. Further, the “MCF10A IC50” value with MCF10A (setting [1]) amounted to 0.00598 µg/mL. The “A549 mean (IC50)” value in the assay with A549 (Table 4, mean/SD part, listed as Ex. 23^a) was 0.2784 µg/mL and 0.3589 µg/mL. Besides, the “A549 IC50” value with A549 (setting [1]) came to 0.2387 µg/mL. In addition, the “PLC/PRF/5 mean (IC50)” value with PLC/PRF/5 is 0.006821 µg/mL. In addition, in the assay on HCT-116 (setting [1]), the “HCT116 IC50” value came out at 0.00148 µg/mL. Further, the “SW620 mean (IC50)” value in the assay on SW620 worked out at 0.01192 µg/mL. Moreover, in the assay on HepG2, the “HepG2 mean (IC50)” value came to 0.01049 µg/mL.

Source of the values: US20140031283A1, “ANTICANCER FUSION PROTEIN” (ADAMED SP. Z O.O., priority 2011, published 2014).
